Source: paper PMC4529235

Experiments:
[1] = target: trimeric ASIC1a concatemeric fusion protein 3_(ASIC)FP (H8-(hA1a-N1Q7)2-hA1a) (human) (UniProt P78348); experiment: cross-linking; BMOE (0.5 or 2 mM) at the cell surface of Xenopus oocytes and CHO cells before lysis, cell-surface biotinylated fractions, SDS-PAGE under reducing conditions, anti-ASIC1a western blot; band intensities pooled over oocytes and CHO cells
[2] = target: trimeric ASIC1a concatemeric fusion protein 3_(ASIC)FP (H8-(hA1a-N1Q7)2-hA1a) (human) (UniProt P78348); experiment: cross-linking; oxidation with 0.3 mM NaTT (20 min, 4°C) of Ni-NTA affinity-purified fractions from Xenopus oocytes and CHO cells, on the beads; non-reducing SDS-PAGE, anti-ASIC1a western blot

## single ASIC1a subunit available in cells expressing 3_(ASIC)FP
[1]
  percent of ASIC1a that migrates as the tetramer: > 60%
[2]
  percent of ASIC1a that migrates as the tetramer: > 60%
